Data on 16 variants can be found in IntAct's records for PubMed 18532879.

B1: Nuclear polyadenylated RNA-binding protein 4 (Saccharomyces cerevisiae), Q99383 (parent)
chain: MSSDEEDFNDIYGDDKPTTTEEVKKEEEQNKAGSGTSQLDQLAALQALSSSLNKLNNPNSNNSSSNNSNQDTSSSKQDGTANDKEGSNEDTKNEKKQESATSANANANASSAGPSGLPWEQLQQTMSQFQQPSSQSPPQQQVTQTKEERSKADLSKESCKMFIGGLNWDTTEDNLREYFGKYGTVTDLKIMKDPATGRSRGFGFLSFEKPSSVDEVVKTQHILDGKVIDPKRAIPRDEQDKTGKIFVGGIGPDVRPKEFEEFFSQWGTIIDAQLMLDKDTGQSRGFGFVTYDSADAVDRVCQNKFIDFKDRKIEIKRAEPRHMQQKSSNNGGNNGGNNMNRRGGNFGNQGDFNQMYQNPMMGGYNPMMNPQAMTDYYQKMQEYYQQMQKQTGMDYTQMYQQQMQQMAMMMPGFAMPPNAMTLNQPQQDSNATQGSPAPSDSDNNKSNDVQTIGNTSNTDSGSPPLNLPNGPKGPSQYNDDHNSGYGYNRDRGDRDRNDRDRDYNHRSGGNHRRNGRGGRGGYNRRNNGYHPYNR
partner: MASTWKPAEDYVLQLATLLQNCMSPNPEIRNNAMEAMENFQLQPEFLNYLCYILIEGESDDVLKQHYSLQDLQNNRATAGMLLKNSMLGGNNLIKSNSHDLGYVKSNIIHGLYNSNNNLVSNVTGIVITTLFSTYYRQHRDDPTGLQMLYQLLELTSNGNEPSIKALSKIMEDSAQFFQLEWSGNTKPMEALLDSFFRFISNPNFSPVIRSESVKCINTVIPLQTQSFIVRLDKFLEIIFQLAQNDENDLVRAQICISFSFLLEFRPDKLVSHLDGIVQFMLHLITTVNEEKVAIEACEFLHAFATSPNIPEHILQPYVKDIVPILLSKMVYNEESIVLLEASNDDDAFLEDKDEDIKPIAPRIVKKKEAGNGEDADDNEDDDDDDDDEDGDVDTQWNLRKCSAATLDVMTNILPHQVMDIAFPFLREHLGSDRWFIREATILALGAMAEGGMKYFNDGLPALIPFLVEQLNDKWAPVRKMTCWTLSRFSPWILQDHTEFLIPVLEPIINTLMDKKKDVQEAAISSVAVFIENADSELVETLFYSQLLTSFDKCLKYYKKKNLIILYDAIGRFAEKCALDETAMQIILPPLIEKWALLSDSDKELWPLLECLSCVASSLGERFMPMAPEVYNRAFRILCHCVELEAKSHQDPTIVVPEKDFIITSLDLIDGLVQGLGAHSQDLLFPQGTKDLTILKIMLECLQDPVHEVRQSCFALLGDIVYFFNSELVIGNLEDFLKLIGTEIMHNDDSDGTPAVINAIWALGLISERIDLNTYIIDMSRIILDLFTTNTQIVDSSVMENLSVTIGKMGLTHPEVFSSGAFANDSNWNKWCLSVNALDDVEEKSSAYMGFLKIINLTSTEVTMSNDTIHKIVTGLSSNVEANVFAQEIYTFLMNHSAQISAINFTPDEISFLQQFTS
B2: Nuclear polyadenylated RNA-binding protein NAB2 (Saccharomyces cerevisiae), P32505 (parent)
chain: MSQEQYTENLKVIVAEKLAGIPNFNEDIKYVAEYIVLLIVNGGTVESVVDELASLFDSVSRDTLANVVQTAFFALEALQQGESAENIVSKIRMMNAQSLGQSDIAQQQQQQQQQQQPDIAQQQPQQQPQQQPQQQPQQQPQQQPQQQPQQQPQQQPQLQPLQPQLGTQNAMQTDAPATPSPISAFSGVVNAAAPPQFAPVDNSQRFTQRGGGAVGKNRRGGRGGNRGGRNNNSTRFNPLAKALGMAGESNMNFTPTKKEGRCRLFPHCPLGRSCPHAHPTKVCNEYPNCPKPPGTCEFLHPNEDEELMKEMERTREEFQKRKADLLAAKRKPVQTGIVLCKFGALCSNPSCPFGHPTPANEDAKVIDLMWCDKNLTCDNPECRKAHSSLSKIKEVKPISQKKAAPPPVEKSLEQCKFGTHCTNKRCKYRHARSHIMCREGANCTRIDCLFGHPINEDCRFGVNCKNIYCLFRHPPGRVLPEKKGAAPNSNVPTNERPFALPENAIIENAPPQTSFTHQEQDTEMN
partner: B1 partner

The first assay covers variants of B1. Particulars: with imb2_yeast KAP104, P38217.
Regarding R512A;R513A;R516A;R519A, the “effect of a mutation on the interaction” value is given as “disrupting interaction strength”. For the variant Y532F, the “effect of a mutation on the interaction” value is reported as “disrupting interaction strength”. For the variant Y532M, the “effect of a mutation on the interaction” value was “disrupting interaction strength”.

For the variant Y532H, the “effect of a mutation on the interaction” value is recorded as “disrupting interaction strength”.

In the case of Y529A, the “effect of a mutation on the interaction” value was “disrupting interaction”.

A further assay covers variants of B2. Particulars: with imb2_yeast KAP104, P38217.
Take K216A;N217A;R218A;R219A: the “effect of a mutation on the interaction” value is listed as “disrupting interaction”. With L239D, the “effect of a mutation on the interaction” value is “disrupting interaction strength”. Regarding L239P, the “effect of a mutation on the interaction” value is “disrupting interaction strength”. With L239E, the “effect of a mutation on the interaction” value is recorded as “disrupting interaction strength”.

Turning to L239I, the “effect of a mutation on the interaction” value is reported as “disrupting interaction strength”. For P238A;L239A, the “effect of a mutation on the interaction” value is on record as “disrupting interaction”. For R222A;P238A;L239A, the “effect of a mutation on the interaction” value is “disrupting interaction”. On to R235A;P238A;L239A, for which the “effect of a mutation on the interaction” value was “disrupting interaction”. For F236A, the “effect of a mutation on the interaction” value is “disrupting interaction”.

On to R235A, for which the “effect of a mutation on the interaction” value was “disrupting interaction”. On the same count and under the same terms, to R218A;R219A;R222A;R226A;R229A belongs “disrupting interaction strength”.
